Experimental findings from US20110014182A1 (published 2011) are described below.

Assay [1] concerns the target T1, human β-amyloid (1-40) peptide (human, UniProt P05067 672-711).
T1 construct: domain: β-amyloid (1-40); Used free in solution, coated on plates, or N- or C-terminally biotinylated, as told under assay; also called Aβ peptide (1-40); Aβ1-40
Put plainly: competition ELISA, antibody pre-incubated with biotinylated β-amyloid 1-40; competitor immobilised mouse 6F6; Exp 1. How it is done:
(§1) 6F6c and humanised antibodies H11L2, H11L9, H11L10, H11L12 and H11L13 were assessed for their ability to bind Aβ1-40 peptide in solution and inhibit the interaction of human Aβ1-40 peptide with mouse 6F6 monoclonal antibody in a competition ELISA. A constant concentration of biotinylated β-amyloid 1-40 was pre-incubated with serial diluted amounts of humanised 6F6 antibody variants. The mixture including complexed and free amyloid was then added to wells containing immobilised mouse 6F6 monoclonal antibody and incubated for 15 minutes at room temperature. Plates were washed and the amount of free β-amyloid that was still available for binding the immobilised parental 6F6 monoclonal antibody was then detected using streptavidin-HRP conjugate.
(§2) All humanised variants were able to effectively compete for binding to 6F6 parental monoclonal antibody with very similar IC50 values.

In assay [2] the target is T1, human β-amyloid (1-40) peptide. Nature of the assay: competition ELISA, antibody pre-incubated with biotinylated β-amyloid 1-40; competitor immobilised mouse 6F6; Exp 2. As for the experimental part:
as §1, §2
(In an ELISA, binding on a coated surface is turned into a signal by an enzyme label.)

For assay [3] the target is unchanged. Nature of the assay: SPR (Biacore T100), antibody captured on protein A, human β-amyloid 1-40 at 256-2 nM, 25°C, mean of three experiments. How it is done:
The affinity of selected heavy and light chain combinations was determined using a Biacore T100 instrument. Three independent experiments were performed using humanised antibody immobilised via protein A surface Biacore chips and injection of β-amyloid 1-40 peptides. The chimeric molecule of 6F6 served as a reference molecule. For this Protein A was immobilised on a CM5 chip by primary amine coupling in accordance with manufactures recommendations. Anti-β-amyloid antibodies were captured on this surface and after a period of stabilisation human β-amyloid 1-40 was passed over at concentrations 256-2 nM in halving dilutions. A buffer injection over the captured antibody surface was used to double reference the data set in accordance with Biacore best practice. […] The work was carried out in HBS-EP at 25° C. Results are summarised in Table 13 as the mean of all three experiments.

For assay [4] the target is unchanged. Put plainly: ELISA on human Aβ peptide (1-40).
For assay [5] the target is unchanged. Nature of the assay: ELISA on human Aβ peptide (1-40), in combination with H11.

T1 sequence (P05067 672-711 limits assumed): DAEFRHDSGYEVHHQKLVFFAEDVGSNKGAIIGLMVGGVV

B1: humanised antibody H11L2 (antibody, human IgG1, kappa, name in Kabat numbering)
heavy: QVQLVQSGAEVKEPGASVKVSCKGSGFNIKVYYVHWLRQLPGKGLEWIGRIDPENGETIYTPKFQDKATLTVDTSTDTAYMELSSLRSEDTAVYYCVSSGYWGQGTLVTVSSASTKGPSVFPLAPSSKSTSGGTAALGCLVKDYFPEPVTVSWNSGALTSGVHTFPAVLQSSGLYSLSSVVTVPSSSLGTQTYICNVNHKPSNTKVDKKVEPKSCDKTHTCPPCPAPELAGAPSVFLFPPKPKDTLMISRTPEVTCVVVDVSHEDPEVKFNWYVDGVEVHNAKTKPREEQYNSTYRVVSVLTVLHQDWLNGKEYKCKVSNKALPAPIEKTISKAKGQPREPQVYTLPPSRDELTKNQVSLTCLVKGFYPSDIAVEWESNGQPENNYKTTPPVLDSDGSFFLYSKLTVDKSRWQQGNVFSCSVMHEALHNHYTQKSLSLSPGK
light: DIVMTQSPLSLPVTPGEPASISCRSSKSLLHRNGITYLYWYLQKPGQSPQLLIYQMSNLASGVPDRFSSSGSGTDFTLKISRVEAEDVGVYYCAQNLELWTFGQGTKVEIKRTVAAPSVFIFPPSDEQLKSGTASVVCLLNNFYPREAKVQWKVDNALQSGNSQESVTEQDSKDSTYSLSSTLTLSKADYEKHKVYACEVTHQGLSSPVTKSFNRGEC
notes: Human IgG1 Fc mutated, human kappa
Usually IC50 stands for the concentration that gives 50% inhibition. High values mean lower potency, low ones higher potency. By Kd is commonly meant a measure of binding affinity in units of concentration. With B1, the IC50 in assay [1] stood at 0.862 µg/mL; in assay [2], 0.578 µg/mL. Besides, in assay [3], the Kd turned out to be 9.57 nM.

B2: humanised VH variant H29 in combination with L2 light chain (antibody, human IgG1, kappa, name in Kabat numbering)
heavy: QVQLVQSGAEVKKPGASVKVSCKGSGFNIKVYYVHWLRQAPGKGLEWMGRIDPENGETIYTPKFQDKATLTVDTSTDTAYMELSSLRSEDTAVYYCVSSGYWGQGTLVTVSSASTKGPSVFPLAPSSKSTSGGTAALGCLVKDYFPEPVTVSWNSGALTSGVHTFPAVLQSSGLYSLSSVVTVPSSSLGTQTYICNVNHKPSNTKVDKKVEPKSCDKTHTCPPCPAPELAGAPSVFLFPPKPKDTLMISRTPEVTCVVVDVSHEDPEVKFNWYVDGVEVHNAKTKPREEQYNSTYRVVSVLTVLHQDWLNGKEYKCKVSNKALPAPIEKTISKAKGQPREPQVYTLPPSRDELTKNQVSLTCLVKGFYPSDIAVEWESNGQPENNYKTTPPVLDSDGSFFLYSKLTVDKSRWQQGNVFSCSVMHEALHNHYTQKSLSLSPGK
light: DIVMTQSPLSLPVTPGEPASISCRSSKSLLHRNGITYLYWYLQKPGQSPQLLIYQMSNLASGVPDRFSSSGSGTDFTLKISRVEAEDVGVYYCAQNLELWTFGQGTKVEIKRTVAAPSVFIFPPSDEQLKSGTASVVCLLNNFYPREAKVQWKVDNALQSGNSQESVTEQDSKDSTYSLSSTLTLSKADYEKHKVYACEVTHQGLSSPVTKSFNRGEC
notes: Kabat numbering
Regarding B2, the binding result in assay [4] is on record as “binds”.

B3: humanised VH variant H23 in combination with L2 light chain (antibody, human IgG1, kappa, name in Kabat numbering, V domains shown)
VH: QVQLVQSGAEVKKPGASVKVSCKGSGFNIKVYYVHWLRQAPGKGLEWIGRIDPENGETIYTPKFQDRVTMTEDTSTDTAYMELSSLRSEDTAVYYCVSSGYWGQGTLVTVSS
VL: DIVMTQSPLSLPVTPGEPASISCRSSKSLLHRNGITYLYWYLQKPGQSPQLLIYQMSNLASGVPDRFSSSGSGTDFTLKISRVEAEDVGVYYCAQNLELWTFGQGTKVEIKR
notes: Kabat numbering
Consider B3, for which the binding result in assay [4] is “binds”.

B4: humanised VL variant L8 in combination with H11 (antibody, human IgG1, kappa, name in Kabat numbering)
heavy: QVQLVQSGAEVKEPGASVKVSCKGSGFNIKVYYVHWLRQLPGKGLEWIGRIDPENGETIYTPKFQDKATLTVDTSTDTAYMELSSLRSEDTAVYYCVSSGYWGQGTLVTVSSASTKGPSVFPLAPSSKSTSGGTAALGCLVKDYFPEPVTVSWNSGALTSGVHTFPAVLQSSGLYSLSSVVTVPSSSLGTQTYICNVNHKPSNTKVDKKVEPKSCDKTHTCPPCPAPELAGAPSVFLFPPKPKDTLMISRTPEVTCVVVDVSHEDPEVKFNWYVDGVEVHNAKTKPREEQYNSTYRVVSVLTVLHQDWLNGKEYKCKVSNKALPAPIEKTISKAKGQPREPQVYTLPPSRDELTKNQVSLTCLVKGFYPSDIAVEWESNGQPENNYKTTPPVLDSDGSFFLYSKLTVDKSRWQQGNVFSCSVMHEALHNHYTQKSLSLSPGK
light: DIVMTQSPLSLPVTPGEPASISCRSSKSLLHRNGITYLYWYLQKPGQPPQLLIYQMSNLASGVPDRFTGSGSGTDFTLKISRVEAEDVGVYYCAQNLELWTFGQGTKVEIKRTVAAPSVFIFPPSDEQLKSGTASVVCLLNNFYPREAKVQWKVDNALQSGNSQESVTEQDSKDSTYSLSSTLTLSKADYEKHKVYACEVTHQGLSSPVTKSFNRGEC
notes: Kabat numbering
For B4, the binding result in assay [5] is “binds”.

B5: humanised VL variant L6 in combination with H11 (antibody, human IgG1, kappa, name in Kabat numbering)
heavy: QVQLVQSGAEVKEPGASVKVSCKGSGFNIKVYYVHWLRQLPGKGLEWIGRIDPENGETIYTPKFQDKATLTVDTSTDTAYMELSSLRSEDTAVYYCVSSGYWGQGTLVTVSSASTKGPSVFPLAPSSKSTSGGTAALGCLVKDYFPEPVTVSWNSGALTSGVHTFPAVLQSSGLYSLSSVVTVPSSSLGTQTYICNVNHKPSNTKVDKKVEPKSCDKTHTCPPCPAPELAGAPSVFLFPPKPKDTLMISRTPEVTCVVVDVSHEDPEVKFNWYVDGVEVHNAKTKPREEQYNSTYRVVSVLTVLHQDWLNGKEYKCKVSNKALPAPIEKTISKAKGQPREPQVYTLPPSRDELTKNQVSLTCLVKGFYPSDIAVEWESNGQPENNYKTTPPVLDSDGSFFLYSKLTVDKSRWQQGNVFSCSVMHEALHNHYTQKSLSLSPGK
light: DIVMTQSPLSLPVTPGEPASISCRSSKSLLHRNGITYLYWYLQKPGQPPQLLIYQMSNLASGVPDRFTGSGSGTDFTLKISRVEAEDVGVYYCAQNLELWTFGGGTKLEIKRTVAAPSVFIFPPSDEQLKSGTASVVCLLNNFYPREAKVQWKVDNALQSGNSQESVTEQDSKDSTYSLSSTLTLSKADYEKHKVYACEVTHQGLSSPVTKSFNRGEC
notes: Kabat numbering
Turning to B5, the binding result in assay [5] is recorded as “binds”.

B6: humanised VH variant H27 in combination with L2 light chain (antibody, human IgG1, kappa, name in Kabat numbering, V domains shown)
VH: QVQLVQSGAEVKEPGASVKVSCKGSGFNIKVYYVHWLRQAPGKGLEWMGRIDPENGETIYTPKFQDKATMTVDTSTDTAYMELSSLRSEDTAVYYCVSSGYWGQGTLVTVSS
VL: DIVMTQSPLSLPVTPGEPASISCRSSKSLLHRNGITYLYWYLQKPGQSPQLLIYQMSNLASGVPDRFSSSGSGTDFTLKISRVEAEDVGVYYCAQNLELWTFGQGTKVEIKR
notes: Kabat numbering
Turning to B6, the binding result in assay [4] is “binds”.

B7: humanised antibody H11L10 (antibody, human IgG1, kappa, name in Kabat numbering)
heavy: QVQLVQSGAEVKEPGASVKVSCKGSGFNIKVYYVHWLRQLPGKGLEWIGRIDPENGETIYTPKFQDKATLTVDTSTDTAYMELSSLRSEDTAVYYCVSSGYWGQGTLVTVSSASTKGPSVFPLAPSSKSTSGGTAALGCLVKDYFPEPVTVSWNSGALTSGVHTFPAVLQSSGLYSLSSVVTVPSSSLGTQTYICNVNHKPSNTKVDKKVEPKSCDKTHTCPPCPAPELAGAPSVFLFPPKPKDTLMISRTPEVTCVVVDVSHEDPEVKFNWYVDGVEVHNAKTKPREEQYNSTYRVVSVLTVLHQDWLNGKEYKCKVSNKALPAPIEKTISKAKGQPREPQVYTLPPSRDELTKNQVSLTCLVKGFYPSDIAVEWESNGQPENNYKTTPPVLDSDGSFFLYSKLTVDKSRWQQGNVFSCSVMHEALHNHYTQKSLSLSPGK
light: DIVMTQSALSLPVTPGEPASISCRSSKSLLHRNGITYLYWYLQKPGQSPQLLIYQMSNLASGVPDRFSSSGSGTDFTLKISRVEAEDVGVYYCAQNLELWTFGQGTKVEIKRTVAAPSVFIFPPSDEQLKSGTASVVCLLNNFYPREAKVQWKVDNALQSGNSQESVTEQDSKDSTYSLSSTLTLSKADYEKHKVYACEVTHQGLSSPVTKSFNRGEC
In assay [1], B7 yielded an IC50 of 0.622 µg/mL. For the same molecule, the equilibrium dissociation constant (Kd) in assay [3] is 5.57 nM.

B8: humanised antibody H11L12 (antibody, human IgG1, kappa, name in Kabat numbering)
heavy: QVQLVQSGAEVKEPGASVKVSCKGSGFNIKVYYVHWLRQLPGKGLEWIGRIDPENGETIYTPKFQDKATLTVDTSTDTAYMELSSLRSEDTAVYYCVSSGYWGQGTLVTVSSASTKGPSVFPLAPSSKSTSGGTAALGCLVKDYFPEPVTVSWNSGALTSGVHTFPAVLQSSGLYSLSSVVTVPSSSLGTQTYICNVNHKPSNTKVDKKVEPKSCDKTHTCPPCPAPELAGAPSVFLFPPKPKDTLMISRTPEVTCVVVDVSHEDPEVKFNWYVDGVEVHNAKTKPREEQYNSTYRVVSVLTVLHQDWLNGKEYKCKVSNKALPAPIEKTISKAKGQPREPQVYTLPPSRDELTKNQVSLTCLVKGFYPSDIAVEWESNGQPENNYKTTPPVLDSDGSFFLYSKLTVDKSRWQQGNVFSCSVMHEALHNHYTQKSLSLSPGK
light: DIVMTQSPLSNPVTPGEPASISCRSSKSLLHRNGITYLYWYLQKPGQPPQLLIYQMSNLASGVPDRFSGSGSGTDFTLKISRVEAEDVGVYYCAQNLELWTFGQGTKVEIKRTVAAPSVFIFPPSDEQLKSGTASVVCLLNNFYPREAKVQWKVDNALQSGNSQESVTEQDSKDSTYSLSSTLTLSKADYEKHKVYACEVTHQGLSSPVTKSFNRGEC
For the molecule B8, the IC50 in assay [1] stood at 0.561 µg/mL; in assay [2], 0.549 µg/mL. In assay [3], the Kd turned out to be 6.95 nM.

B9: humanised VH variant H26 in combination with L2 light chain (antibody, human IgG1, kappa, name in Kabat numbering, V domains shown)
VH: QVQLVQSGAEVKKPGASVKVSCKGSGFNIKVYYVHWLRQAPGKGLEWIGRIDPENGETIYTPKFQDRVTLTEDTSSDTAYMELSSLRSEDTAVYYCVSSGYWGQGTLVTVSS
VL: DIVMTQSPLSLPVTPGEPASISCRSSKSLLHRNGITYLYWYLQKPGQSPQLLIYQMSNLASGVPDRFSSSGSGTDFTLKISRVEAEDVGVYYCAQNLELWTFGQGTKVEIKR
notes: Kabat numbering
As for B9, the binding result in assay [4] is “binds”.

B10: humanised VH variant H24 in combination with L2 light chain (antibody, human IgG1, kappa, name in Kabat numbering, V domains shown)
VH: QVQLVQSGAEVKKPGASVKVSCKGSGFNIKVYYVHWLRQAPGKGLEWMGRIDPENGETIYTPKFQDRVTMTEDTSSNTAYMELSSLRSEDTAVYYCVSSGYWGQGTLVTVSS
VL: DIVMTQSPLSLPVTPGEPASISCRSSKSLLHRNGITYLYWYLQKPGQSPQLLIYQMSNLASGVPDRFSSSGSGTDFTLKISRVEAEDVGVYYCAQNLELWTFGQGTKVEIKR
notes: Kabat numbering
With B10, the binding result in assay [4] was “binds”.

B11: humanised VH variant H21 in combination with L2 light chain (antibody, human IgG1, kappa, name in Kabat numbering, V domains shown)
VH: QVQLVQSGAEVKKPGASVKVSCKGSGFNIKVYYVHWLRQLPGKGLEWMGRIDPENGETIYTPKFQDRVTMTEDTSTDTAYMELSSLRSEDTAVYYCVSSGYWGQGTLVTVSS
VL: DIVMTQSPLSLPVTPGEPASISCRSSKSLLHRNGITYLYWYLQKPGQSPQLLIYQMSNLASGVPDRFSSSGSGTDFTLKISRVEAEDVGVYYCAQNLELWTFGQGTKVEIKR
As to B11, in assay [4], the binding result is “binds”.

B12: humanised VH variant H25 in combination with L2 light chain (antibody, human IgG1, kappa, name in Kabat numbering, V domains shown)
VH: QVQLVQSGAEVKKPGASVKVSCKGSGFNIKVYYVHWLRQAPGKGLEWIGRIDPENGETIYTPKFQDRVTLTEDTSTDTAYMELSSLRSEDTAVYYCVSSGYWGQGTLVTVSS
VL: DIVMTQSPLSLPVTPGEPASISCRSSKSLLHRNGITYLYWYLQKPGQSPQLLIYQMSNLASGVPDRFSSSGSGTDFTLKISRVEAEDVGVYYCAQNLELWTFGQGTKVEIKR
notes: Kabat numbering
Consider B12, for which the binding result in assay [4] is listed as “binds”.

B13: humanised VL variant L7 in combination with H11 (antibody, human IgG1, kappa, name in Kabat numbering, V domains shown)
VH: QVQLVQSGAEVKEPGASVKVSCKGSGFNIKVYYVHWLRQLPGKGLEWIGRIDPENGETIYTPKFQDKATLTVDTSTDTAYMELSSLRSEDTAVYYCVSSGYWGQGTLVTVSS
VL: DIVMTQSPLSLPVTPGEPASISCRSSKSLLHRNGITYLYWYLQKPGQPPQLLIYQMSNLASGVPDRFSSSGSGTDFTLKISRVEAEDVGVYYCAQNLELWTFGQGTKVEIKR
notes: Kabat numbering
For B13, in assay [5], the binding result is listed as “binds”.

B14: humanised VH variant H28 in combination with L2 light chain (antibody, human IgG1, kappa, name in Kabat numbering)
heavy: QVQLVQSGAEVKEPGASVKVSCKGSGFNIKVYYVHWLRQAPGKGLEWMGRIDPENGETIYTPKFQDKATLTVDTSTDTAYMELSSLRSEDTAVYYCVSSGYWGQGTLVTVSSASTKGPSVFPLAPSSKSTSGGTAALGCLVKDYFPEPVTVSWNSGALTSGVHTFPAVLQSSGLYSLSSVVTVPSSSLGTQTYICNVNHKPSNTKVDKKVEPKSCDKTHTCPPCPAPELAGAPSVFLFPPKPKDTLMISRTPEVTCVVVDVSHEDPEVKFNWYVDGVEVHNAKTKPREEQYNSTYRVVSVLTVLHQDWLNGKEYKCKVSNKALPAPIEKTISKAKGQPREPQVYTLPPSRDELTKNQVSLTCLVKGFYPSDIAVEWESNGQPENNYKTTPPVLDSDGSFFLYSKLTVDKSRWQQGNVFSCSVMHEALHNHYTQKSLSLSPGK
light: DIVMTQSPLSLPVTPGEPASISCRSSKSLLHRNGITYLYWYLQKPGQSPQLLIYQMSNLASGVPDRFSSSGSGTDFTLKISRVEAEDVGVYYCAQNLELWTFGQGTKVEIKRTVAAPSVFIFPPSDEQLKSGTASVVCLLNNFYPREAKVQWKVDNALQSGNSQESVTEQDSKDSTYSLSSTLTLSKADYEKHKVYACEVTHQGLSSPVTKSFNRGEC
notes: Kabat numbering
As for B14, in assay [4], the binding result was “binds”.

B15: humanised VL variant L4 in combination with H11 (antibody, human IgG1, kappa, name in Kabat numbering, V domains shown)
VH: QVQLVQSGAEVKEPGASVKVSCKGSGFNIKVYYVHWLRQLPGKGLEWIGRIDPENGETIYTPKFQDKATLTVDTSTDTAYMELSSLRSEDTAVYYCVSSGYWGQGTLVTVSS
VL: DIVMTQSPLSLPVTPGEPASISCRSSKSLLHRNGITYLYWYLQKPGQSPQLLIYQMSNLASGVPDRFTGSGSGTDFTLKISRVEAEDVGVYYCAQNLELWTFGQGTKVEIKR
notes: Kabat numbering
Turning to B15, the binding result in assay [5] was “binds”.

B16: humanised antibody H11L13 (antibody, human IgG1, kappa, name in Kabat numbering)
heavy: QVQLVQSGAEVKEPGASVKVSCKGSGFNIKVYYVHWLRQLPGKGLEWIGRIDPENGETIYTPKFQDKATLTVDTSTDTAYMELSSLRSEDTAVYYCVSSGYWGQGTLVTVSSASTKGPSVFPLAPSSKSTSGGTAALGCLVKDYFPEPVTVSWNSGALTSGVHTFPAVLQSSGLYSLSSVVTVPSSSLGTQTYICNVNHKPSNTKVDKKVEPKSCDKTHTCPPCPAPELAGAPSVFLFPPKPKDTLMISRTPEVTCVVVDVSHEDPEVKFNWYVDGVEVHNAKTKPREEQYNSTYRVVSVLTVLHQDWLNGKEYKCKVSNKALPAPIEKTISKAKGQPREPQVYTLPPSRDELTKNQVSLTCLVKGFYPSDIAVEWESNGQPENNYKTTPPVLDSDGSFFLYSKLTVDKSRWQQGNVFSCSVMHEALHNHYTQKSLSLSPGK
light: DIVMTQSALSLPVTPGEPASISCRSSKSLLHRNGITYLYWYLQKPGQPPQLLIYQMSNLASGVPDRFSGSGSGTDFTLKISRVEAEDVGVYYCAQNLELWTFGQGTKVEIKRTVAAPSVFIFPPSDEQLKSGTASVVCLLNNFYPREAKVQWKVDNALQSGNSQESVTEQDSKDSTYSLSSTLTLSKADYEKHKVYACEVTHQGLSSPVTKSFNRGEC
As to B16, the concentration for half-maximal inhibition (IC50) in assay [1] came to 0.616 µg/mL; in assay [2] it was 0.531 µg/mL. The Kd in assay [3] came out at 7.41 nM.
